First the molecules themselves.
B1: peptide homodimer based on the peptide monomer amino acid sequence of SEQ ID NO: 31, DIG linker (peptide)
peptide: Ac-WDCLVDRPGRRQCVKLER-NH2
modifications: disulfide 3-13 (inferred); also: homodimer via diglycolic acid (DIG) linker, site not given here
B2: peptide homodimer based on the peptide monomer amino acid sequence of SEQ ID NO: 30, DIG linker (peptide)
peptide: Ac-WDCLVDRPGRRQCVRLERK-NH2
modifications: disulfide 3-13 (inferred); also: homodimer via diglycolic acid (DIG) linker, site not given here
B3: peptide homodimer based on the peptide monomer amino acid sequence of SEQ ID NO: 29, DIG linker (peptide)
peptide: Ac-WDCLVDRPGRRQCVRLEK-NH2
modifications: disulfide 3-13 (inferred); also: homodimer via diglycolic acid (DIG) linker, site not given here
B4: peptide homodimer based on the monomer amino acid sequence of SEQ ID NO: 22, DIG linker (peptide)
peptide: Ac-WDCLDRPGRRQCVK-NH2
modifications: disulfide 3-12 (inferred); also: homodimer via diglycolic acid (DIG) linker, site not given here
B5: peptide monomer based on the amino acid sequence of SEQ ID NO: 22 conjugated to a DIG linker moiety (peptide)
peptide: Ac-WDCLDRPGRRQCVK-NH2
modifications: disulfide 3-12 (inferred); also: DIG linker moiety conjugated, site not given here

Values joined by “and” are separate entries in the source; they are usually repeats but may differ in a detail not shown here. Equal entries are not always repeated. Numbered stars: 1 amine (or outer) side, 2 acyl side, 3 side chain; on linkers, the order of the positions; unused ones are H or OH. Bridge positions count the residues as written; N and C are the ends. Peptide text beside a SMILES is read from it. I, II: the chains in the order shown. Isophthaloyl = O=C(c1cccc(C(=O)[*:2])c1)[*:1]; Diglycolyl = O=C(COCC(=O)[*:2])[*:1]; DIG = diglycolic acid linker

The term IC50 denotes the point on the concentration scale where inhibition reaches its midpoint. A word on the EC50: it is the concentration giving half of the maximal effect. High values mean a less potent agent, low ones a more potent agent.

The target in the first test is TRAIL R2 receptor on HCT-116 or Jurkat cells (UniProt O14763 56-440, limits assumed). In words: cell-based or functional assay.
Conditions: not given
For the molecule Ac-WDCLDNRIGRRQCVK(DIG)L-NH2 (disulfide 3-13; also: homodimer joined through DIG linker) [peptide homodimer based on the monomer amino acid sequence of SEQ ID NO: 19, DIG linker], the “EC50, apoptotic activity in HCT-116 proliferation assay (MTT)” value is ~1620 nM.
Consider Ac-WDCLDNRIGRRQCVKL-NH2 (disulfide 3-13; also: homodimer via IPA linker, site not given here) [peptide homodimer based on the peptide monomer amino acid sequence of SEQ ID NO: 19, IPA linker], for which the “EC50, Jurkat proliferation assay (apoptosis, MTT)” value lay within 1400 to 4020 nM.
On the same count and under the same terms, as for B1, the figure is > 33000 nM; as for B2, 611 to 1090 nM; as for Ac-WDCLDNRIGRRQCVKL-NH2 (disulfide 3-13; also: homodimer via DOD linker, site not given here) [peptide homodimer based on the peptide monomer amino acid sequence of SEQ ID NO: 19, DOD linker], 2000 to 4410 nM.
Same read-out and setting: as for B3, the figure is 1300 to 1660 nM.
For the molecule Ac-WDCLDNRIGRRQCVKL-NH2 (disulfide 3-13; also: homotrimer via TSAT linker, site not given here) [peptide homotrimer based on the peptide monomer sequence of SEQ ID NO: 19, TSAT linker], the “EC50, apoptotic activity in HCT-116 proliferation assay (MTT)” value is ~480 nM.

The target in the next test is T1, human TRAIL R2 (Homo sapiens, UniProt O14763).
T1 construct: purchased R&D Systems, Minneapolis, Minn
In words: AlphaQuest TRAIL R2 receptor binding competition assay (AlphaScreen, biotinylated TRAIL ligand vs TRAIL R2-Fc). The settings on record: competition with biotinylated TRAIL ligand; single values and ranges over assays; read-out: binding activity (IC50). From the text:
Laser excitation (680 nm) of a photosensitizer in the donor bead generates singlet state oxygen molecules, which react with a chemiluminescer in the acceptor bead to generate a detectable light signal (520-620 nm). Because the singlet O2 molecules have an extremely short half-life (i.e., t ½), a signal is generated only when the donor and acceptor beads are brought into close proximity, by TRAIL binding to the R2 receptor. The presence of unlabeled test peptide that competes with TRAIL for binding to the R2 receptor will prevent this binding, resulting in a measurable decrease in light emission.
Recombinant human TRAIL R2-Fc fusion protein (R&D Systems, Minneapolis, Minn.) is diluted in AlphaQuest® buffer to a concentration of 600 pM, pre-mixed with 1.9 μL Protein A-coated acceptor beads and 1.9 μL streptavidin-coated donor beads (Perkin-Elmer®, Waltham, Mass.), then 2 μL is added to each well of the assay plate. […] The plates are sealed with adhesive sealing film and covered with aluminum foil, centrifuged at 600 rpm for 30 seconds and incubated overnight in the dark. […] The raw data are analyzed using GraphPad Prism® software (La Jolla, Calif.) to calculate IC50 values from a 4-parameter logistic equation.
Turning to `CC(=O)N[C@@H](Cc1c[nH]c2ccccc12)C(=O)N[C@@H](CC(=O)O)C(=O)N[C@H]1CSSC[C@@H](C(=O)N[C@H](C(=O)N[C@@H](CCCCN)C(N)=O)C(C)C)NC(=O)[C@H](CCC(N)=O)NC(=O)[C@H](CCCNC(=N)N)NC(=O)[C@H](CCCNC(=N)N)NC(=O)CNC(=O)[C@@H]2CCCN2C(=O)[C@H](CCCNC(=N)N)NC(=O)[C@H](CC(=O)O)NC(=O)[C@H](CC(C)C)NC1=O` [SEQ ID NO: 22 monomer] (Ac-WDCLDRPGRRQCVK-NH2; disulfide 3-12), the IC50 was in the range of 3550 to 10700 nM.
Regarding `CC[C@H](C)[C@@H]1NC(=O)[C@H](CCCNC(=N)N)NC(=O)[C@H](CC(N)=O)NC(=O)[C@H](CC(=O)O)NC(=O)[C@H](CC(C)C)NC(=O)[C@@H](NC(=O)[C@H](CC(=O)O)NC(C)=O)CSSC[C@@H](C(=O)N[C@H](C(=O)N[C@@H](CCCCN)C(=O)N[C@@H](CC(C)C)C(N)=O)C(C)C)NC(=O)[C@H](CCC(N)=O)NC(=O)[C@H](CCCNC(=N)N)NC(=O)[C@H](CCCNC(=N)N)NC(=O)CNC1=O` [SEQ ID NO: 25 monomer] (Ac-DCLDNRIGRRQCVKL-NH2; disulfide 2-12), the IC50 is ≥ 100000 nM.
As for `CC[C@H](C)[C@@H]1NC(=O)[C@H](CCCNC(=N)N)NC(=O)[C@H](CC(N)=O)NC(=O)[C@H](CC(=O)O)NC(=O)[C@H](CC(C)C)NC(=O)[C@@H](NC(=O)[C@H](CC(=O)O)NC(=O)[C@H](Cc2c[nH]c3ccccc23)NC(C)=O)CSSC[C@@H](C(=O)N[C@H](C(=O)N[C@@H](CCCNC(=N)N)C(N)=O)C(C)C)NC(=O)[C@H](CCC(N)=O)NC(=O)[C@H](CCCNC(=N)N)NC(=O)[C@H](CCCCNC(=O)COCC(=O)NCCCC[C@@H]2NC(=O)CNC(=O)[C@H]([C@@H](C)CC)NC(=O)[C@H](CCCNC(=N)N)NC(=O)[C@H](CC(N)=O)NC(=O)[C@H](CC(=O)O)NC(=O)[C@H](CC(C)C)NC(=O)[C@@H](NC(=O)[C@H](CC(=O)O)NC(=O)[C@H](Cc3c[nH]c4ccccc34)NC(C)=O)CSSC[C@@H](C(=O)N[C@H](C(=O)N[C@@H](CCCNC(=N)N)C(N)=O)C(C)C)NC(=O)[C@H](CCC(N)=O)NC(=O)[C@H](CCCNC(=N)N)NC2=O)NC(=O)CNC1=O` [SEQ ID NO: 33 homodimer] (I: Ac-WDCLDNRIGKRQCVR-NH2 / II: Ac-WDCLDNRIGKRQCVR-NH2; disulfide I:3-I:13, II:3-II:13; linker I:10-II:10 via Diglycolyl), the IC50 was 0.025 to 0.092 nM and ~0.061 nM.
For `CC[C@H](C)[C@@H]1NC(=O)[C@H](CCCNC(=N)N)NC(=O)[C@H](CC(N)=O)NC(=O)[C@H](CC(=O)O)NC(=O)[C@H](CC(C)C)NC(=O)[C@@H](NC(=O)[C@H](CC(=O)O)NC(=O)[C@H](Cc2c[nH]c3ccccc23)NC(C)=O)CSSC[C@@H](C(=O)N[C@H](C(=O)N[C@@H](CCCNC(=N)N)C(N)=O)C(C)C)NC(=O)[C@H](CCC(N)=O)NC(=O)[C@H](CCCNC(=N)N)NC(=O)[C@H](CCCCN)NC(=O)CNC1=O` [SEQ ID NO: 33 monomer] (Ac-WDCLDNRIGKRQCVR-NH2; disulfide 3-13), the IC50 lay within 200 to 5700 nM.

The test system of a further test is Jurkat cells.
Test: not given
It is filed as cell-based.
Conditions: not given
Here is the method: The apoptotic activity of test peptides is measured using a Jurkat proliferation assay.
Jurkat cells are obtained from the American Type Culture Collection (ATCC, Manassas, Va.) and are maintained in RPMI-1640 medium supplemented with 10% FBS, 100 U/mL penicillin, and 100 […] (Growth Medium). […] Cells are resuspended at a density of 1×10^6 cells/mL in Growth Medium, and 50 μl cells is added to each well of the assay plates. The plates are incubated in a 37° C., 5% CO2 incubator for 24-48 hours. Proliferation is assessed by adding 10 μL of MTT stock solution (ATCC, Manassas, Va.) to the wells. The plates are incubated in a 37° C., 5% CO2 incubator for another 2-4 hours, followed by the addition of 100 μL of 20% SDS with 0.01 N HCl. After incubation overnight in a 37° C., 5% CO2 incubator, the plates are quantified by reading the optical density at a wavelength of 595 nm (OD595) in a SpectraMax® M5 microplate reader (Molecular Devices, Sunnyvale, Calif.). The data are analyzed using GraphPad Prism® software (La Jolla, Calif.) to calculate IC50 values from a 4-parameter logistic equation.
The molecule `CC[C@H](C)[C@@H]1NC(=O)[C@H](CCCNC(=N)N)NC(=O)[C@H](CC(N)=O)NC(=O)[C@H](CC(=O)O)NC(=O)[C@H](CC(C)C)NC(=O)[C@@H](NC(=O)[C@H](CC(=O)O)NC(=O)[C@H](Cc2c[nH]c3ccccc23)NC(C)=O)CSSC[C@@H](C(=O)N[C@H](C(=O)N[C@@H](CCCCNC(=O)c2cccc(C(=O)NCCCC[C@H](NC(=O)[C@@H](NC(=O)[C@@H]3CSSC[C@H](NC(=O)[C@H](CC(=O)O)NC(=O)[C@H](Cc4c[nH]c5ccccc45)NC(C)=O)C(=O)N[C@@H](CC(C)C)C(=O)N[C@@H](CC(=O)O)C(=O)N[C@@H](CC(N)=O)C(=O)N[C@@H](CCCNC(=N)N)C(=O)N[C@@H]([C@@H](C)CC)C(=O)NCC(=O)N[C@@H](CCCNC(=N)N)C(=O)N[C@@H](CCCNC(=N)N)C(=O)N[C@@H](CCC(N)=O)C(=O)N3)C(C)C)C(=O)N[C@@H](CC(C)C)C(N)=O)c2)C(=O)N[C@@H](CC(C)C)C(N)=O)C(C)C)NC(=O)[C@H](CCC(N)=O)NC(=O)[C@H](CCCNC(=N)N)NC(=O)[C@H](CCCNC(=N)N)NC(=O)CNC1=O` [SEQ ID NO: 19 homodimer (IPA linker)] (I: Ac-WDCLDNRIGRRQCVKL-NH2 / II: Ac-WDCLDNRIGRRQCVKL-NH2; disulfide I:3-I:13, II:3-II:13; linker I:15-II:15 via Isophthaloyl) yielded an EC50 of 1400 to 4020 nM.

The next test addresses T2, Recombinant human TRAIL R2-Fc fusion protein (R&D Systems) (human, UniProt O14763 52-182, limits assumed).
T2 construct: Bought from R&D Systems; held on protein A-coated acceptor beads in the AlphaQuest/AlphaScreen assay; also called TRAIL R2 receptor; R2 receptor; not shown: Fc part of the bought fusion protein
In words: AlphaQuest competition: displaces biotinylated TRAIL ligand from human TRAIL R2-Fc.
Conditions: not given
The method, then: The plates are sealed with adhesive sealing film and covered with aluminum foil, centrifuged at 600 rpm for 30 seconds and incubated overnight in the dark. […] The raw data are analyzed using GraphPad Prism® software (La Jolla, Calif.) to calculate IC₅₀ values from a 4-parameter logistic equation.
For the molecule B4, the 50% inhibitory concentration (IC50) was determined as 6.2 nM.
On the same count and under the same terms, the result for B5 reads 1200 to 2300 nM.
Take Ac-DCLDNRIGRRQCVKL-NH2 (disulfide 2-12 (inferred)) [peptide monomer based on the amino acid sequence of SEQ ID NO: 25]: the IC50 was ≥ 100000 nM.
The same measure, in the same setting: the result for Ac-GGSWDCLDNRIGRRQCVKL-NH2 (disulfide 6-16 (inferred)) [peptide monomer based on the amino acid sequence of SEQ ID NO: 20] reads ~303 nM.
The same measure, in the same setting: as for Ac-WDCLDNRIGRRQCVK-NH2 (disulfide 3-13 (inferred)) [peptide monomer based on the amino acid sequence of SEQ ID NO: 28], the figure is ~80 nM.

The values above are taken from patent US20090131317A1, “COMPOUNDS AND PEPTIDES THAT BIND THE TRAIL RECEPTOR” (AFFYMAX, INC., priority 2007, published 2009).
